Target: SlDOF9-His (Solanum lycopersicum, UniProt A0A3Q7FC45 1-258)
Assay: EMSA (supershift); anti-His antibody; Biotin-labeled and unlabeled probes with purified protein and anti-His antibody, room temperature, 30 min; buffer from kit, salt and pH not stated
Details: protein: recombinant, tags: C-terminal His, blunt

SlDOF9-His, sequence (A0A3Q7FC45 entry or part of it): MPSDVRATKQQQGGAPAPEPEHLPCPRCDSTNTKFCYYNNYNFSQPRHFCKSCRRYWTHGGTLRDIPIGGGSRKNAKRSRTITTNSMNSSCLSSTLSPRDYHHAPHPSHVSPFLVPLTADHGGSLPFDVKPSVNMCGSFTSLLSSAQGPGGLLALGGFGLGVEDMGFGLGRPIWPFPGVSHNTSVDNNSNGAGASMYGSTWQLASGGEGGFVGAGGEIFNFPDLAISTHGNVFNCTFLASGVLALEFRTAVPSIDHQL

| Binder | binding result (label: biotin (labeled probe)) | binding result |
| --- | --- | --- |
| TS2 (dsDNA) DNA 1: AGCCAGAAAAGAAAATACAATAATTCTCATT DNA 2: AATGAGAATTATTGTATTTTCTTTTCTGGCT | binds |  |
| TS1 (dsDNA) DNA 1: AAAAAGTGATAAGAAAAAACATCCAAGCCCT DNA 2: AGGGCTTGGATGTTTTTTCTTATCACTTTTT | binds |  |
| TS1m (dsDNA) DNA 1: AACATGTGATAAGAAAAAACATCCAAGCCCT DNA 2: AGGGCTTGGATGTTTTTTCTTATCACATGTT |  | no binding |

Reference: article PMC12302606, “The SlDOF9‐SlSWEET17 Module: a Switch for Controlling Sugar Distribution Between Nematode Induced Galls and Roots in Tomato”
